In test [1] the target is spike protein of authentic SARS-CoV-2 B.1.1.519/BA.1 (SARS-CoV-2 (BA.1)). Put plainly: cell-based or functional assay.
The target in test [2] is spike protein of authentic SARS-CoV-2 B.1.617.2 (SARS-CoV-2 (B.1.617.2)). As to the kind of experiment: cell-based or functional assay.
The target of test [3] is spike protein of authentic SARS-CoV-2 B.1.351 (SARS-CoV-2 (B.1.351)). Put plainly: cell-based or functional assay.
Test [4] addresses spike protein of authentic SARS-CoV-2 B.1.1.519/BA.1.1 (SARS-CoV-2 (BA.1.1)). As to the kind of experiment: cell-based or functional assay.
Test [5] concerns the target spike protein of authentic SARS-CoV-2 B.1.1.519/BA.2 (SARS-CoV-2 (BA.2)). As to the kind of experiment: cell-based or functional assay.
The target in test [6] is spike protein of authentic SARS-CoV-2 B.1.617.2/AY1 (SARS-CoV-2 (B.1.617.2.AY1)). As to the kind of experiment: cell-based or functional assay.
In test [7] the target is Δ19 spike protein of C.37 on pseudotyped lentivirus (SARS-CoV-2 (C.37)). Put plainly: cell-based or functional assay.
The target in test [8] is Δ19 spike protein of B.1.617.2 on pseudotyped lentivirus (SARS-CoV-2 (B.1.617.2)). Put plainly: cell-based or functional assay.
For test [9], the target named is Δ19 spike protein of strain B.1.351 on pseudotyped lentivirus (SARS-CoV-2 (B.1.351)). As to the kind of experiment: cell-based or functional assay.
For test [10], the target named is T1, human IgG1 Fc-tagged RBD, E484Q (SARS-CoV-2; human, UniProt P0DTC2 319-541).
T1 construct: domain: RBD
Put plainly: ELISA; DARPin coated, Fc-tagged RBD titrated. Background: ELISA stands for enzyme-linked immunosorbent assay.

Test [11] has as its target T2, human IgG1 Fc-tagged RBD, F490S (SARS-CoV-2; human, UniProt P0DTC2 319-541).
T2 construct: domain: RBD
Put plainly: ELISA; DARPin coated, Fc-tagged RBD titrated.

Test [12] concerns the target T3, human IgG1 Fc-tagged RBD, F486S (SARS-CoV-2; human, UniProt P0DTC2 319-541).
T3 construct: domain: RBD
Put plainly: ELISA; DARPin coated, Fc-tagged RBD titrated.

Test [13] has as its target T4, human IgG1 Fc-tagged RBD, K417E (SARS-CoV-2; human, UniProt P0DTC2 319-541).
T4 construct: domain: RBD
As to the kind of experiment: ELISA; DARPin coated, Fc-tagged RBD titrated.

Test [14] has as its target T5, human IgG1 Fc-tagged RBD, G476S (SARS-CoV-2; human, UniProt P0DTC2 319-541).
T5 construct: domain: RBD
As to the kind of experiment: ELISA; DARPin coated, Fc-tagged RBD titrated.

The target in test [15] is T6, human IgG1 Fc-tagged RBD, S477N (SARS-CoV-2; human, UniProt P0DTC2 319-541).
T6 construct: domain: RBD
As to the kind of experiment: ELISA; DARPin coated, Fc-tagged RBD titrated.

The target in test [16] is T7, human IgG1 Fc-tagged RBD, L452R + E484Q (SARS-CoV-2; human, UniProt P0DTC2 319-541).
T7 construct: domain: RBD
Put plainly: ELISA; DARPin coated, Fc-tagged RBD titrated.

The target of test [17] is T8, human IgG1 Fc-tagged RBD, N439K (SARS-CoV-2; human, UniProt P0DTC2 319-541).
T8 construct: domain: RBD
As to the kind of experiment: ELISA; DARPin coated, Fc-tagged RBD titrated.

For test [18], the target named is T9, human IgG1 Fc-tagged RBD, Wuhan-1 (SARS-CoV-2 (Wuhan-1); human, UniProt P0DTC2 319-541).
T9 construct: domain: RBD
As to the kind of experiment: ELISA; DARPin coated, Fc-tagged RBD titrated.

The target in test [19] is T10, human IgG1 Fc-tagged RBD, V445A (SARS-CoV-2; human, UniProt P0DTC2 319-541).
T10 construct: domain: RBD
As to the kind of experiment: ELISA; DARPin coated, Fc-tagged RBD titrated.

Test [20] concerns the target T11, human IgG1 Fc-tagged RBD, L452R (SARS-CoV-2; human, UniProt P0DTC2 319-541).
T11 construct: domain: RBD
Put plainly: ELISA; DARPin coated, Fc-tagged RBD titrated.

Test [21] deals with T12, human IgG1 Fc-tagged RBD, F486V (SARS-CoV-2; human, UniProt P0DTC2 319-541).
T12 construct: domain: RBD
As to the kind of experiment: ELISA; DARPin coated, Fc-tagged RBD titrated.

Test [22] concerns the target T13, human IgG1 Fc-tagged RBD, K444Q (SARS-CoV-2; human, UniProt P0DTC2 319-541).
T13 construct: domain: RBD
Put plainly: ELISA; DARPin coated, Fc-tagged RBD titrated.

Test [23] concerns the target T14, human IgG1 Fc-tagged RBD, T478K (SARS-CoV-2; human, UniProt P0DTC2 319-541).
T14 construct: domain: RBD
As to the kind of experiment: ELISA; DARPin coated, Fc-tagged RBD titrated.

In test [24] the target is T15, human IgG1 Fc-tagged RBD, E484K (SARS-CoV-2; human, UniProt P0DTC2 319-541).
T15 construct: domain: RBD
As to the kind of experiment: ELISA; DARPin coated, Fc-tagged RBD titrated.

The target in test [25] is T16, human IgG1 Fc-tagged RBD, L455F (SARS-CoV-2; human, UniProt P0DTC2 319-541).
T16 construct: domain: RBD
As to the kind of experiment: ELISA; DARPin coated, Fc-tagged RBD titrated.

Test [26] has as its target T17, human IgG1 Fc-tagged RBD, S494P (SARS-CoV-2; human, UniProt P0DTC2 319-541).
T17 construct: domain: RBD
Put plainly: ELISA; DARPin coated, Fc-tagged RBD titrated.

The target in test [27] is T18, human IgG1 Fc-tagged RBD, Y453F (SARS-CoV-2; human, UniProt P0DTC2 319-541).
T18 construct: domain: RBD
As to the kind of experiment: ELISA; DARPin coated, Fc-tagged RBD titrated.

The target of test [28] is T19, human IgG1 Fc-tagged RBD, G446V (SARS-CoV-2; human, UniProt P0DTC2 319-541).
T19 construct: domain: RBD
Put plainly: ELISA; DARPin coated, Fc-tagged RBD titrated.

Test [29] addresses T20, human IgG1 Fc-tagged RBD, L452R + T478K (SARS-CoV-2; human, UniProt P0DTC2 319-541).
T20 construct: domain: RBD
As to the kind of experiment: ELISA; DARPin coated, Fc-tagged RBD titrated.

The target of test [30] is T9, human IgG1 Fc-tagged RBD, Wuhan-1.
Test [31] addresses human IgG1 Fc-tagged RBD of Omicron (SARS-CoV-2 (Omicron); human).

“And” between values parts separate entries of the source, which are not always exact repeats. Equal values may be shown once. Some results are limits rather than exact numbers.

Usually EC50 stands for the midpoint of the concentration-response curve. A word on the Kd: it is the concentration at which binding is half-saturated.

B1: FSR22 (designed binder)
chain: MGSSHHHHHHSSGMEQKLISEEDLDGYIPEAPRDGQAYVRKDGEWVLLSTFLGGGGSLQGGGGSLQGSDLGKKLLEAARAGQDDEVRILMANGADVNACDPSGITPLHLAADKGHLEIVEVLLKYGADVNAMDVWGRTPLHLAAFTGHLEIVEVLLKYGADVNACDLNGYTPLHLAAGRGHLEIVEVLLKNGAGVNAQDKFGKTAFDISIDNGNEDLAEILQSSS
On to B1, for which the “Neutralization IC50, authentic SARS-CoV-2 virus” value in test [1] came to 169 ngml^-1; in test [2], 41.7 ngml^-1; in test [3], 57.2 ngml^-1; in [4] it was 41.2 ngml^-1; in test [5] it was 216 ngml^-1; in test [6], 44.2 ngml^-1. The “Neutralization IC50, pseudotyped lentivirus” value in test [7] is 6.3 ng/ml and 89 pM; in test [8], 13.3 ng/ml and 188 pM; in [9], 9.5 ng/ml and 135 pM. Further, the concentration giving a half-maximal response (EC50) in test [10] was determined as 4.05 nM; in test [11] it was 1.57 nM; in test [12], 70.5 nM; in [13], 300 nM; in [14], 27.2 nM; in test [15] it was 1.57 nM. Also, the concentration for a half-maximal effect (EC50) in test [16] is 4.05 nM; in test [17], 2.63 nM; in test [18], 1.96 nM; in [19], 3.43 nM; in test [20], 1.87 nM; in [21], 105 nM. The half-maximal effective concentration (EC50) in test [22] worked out at 5.92 nM; in [23], 15.2 nM; in test [24], 4.57 nM; in [25], 9.24 nM; in [26], 0.61 nM; in test [27], 3.97 nM. For the same molecule, the figures for the concentration giving a half-maximal response (EC50) in test [28] and in test [29] were 30.6 nM and 7.83 nM, respectively. Besides, the Kd in [30] worked out at 12.3 nM; in test [31] it was 2.63 nM.

B2: SR22 (designed binder)
chain: MGSSHHHHHHSSGLVPRGSHMEQKLISEEDLGSDLGKKLLEAARAGQDDEVRILMANGADVNACDPSGITPLHLAADKGHLEIVEVLLKYGADVNAMDVWGRTPLHLAAFTGHLEIVEVLLKYGADVNACDLNGYTPLHLAAGRGHLEIVEVLLKNGAGVNAQDKFGKTAFDISIDNGNEDLAEILQSSS
For the molecule B2, the “Neutralization IC50, pseudotyped lentivirus” value in test [8] is 69.8 nM; in test [9] it was 1100 nM.

B3: FSR16m (designed binder)
chain: MGMEQKLISEEDLDGYIPEAPRDGQAYVRKDGEWVLLSTFLGGGGSLQGGGGSLQGSDLGKKLLEAARAGQDDEVRILMANGADVNALDLFGVTPLHLAAERGHLEIVEVLLKNGADVNAGDAFGRTPLHLAALGGHLEIVEVLLKNGADVNACDLYGVTPLHLAAGLGHLEIVEVLLKNGADVNAQDKFGKTAFDISIDNGNEDLAEILQSSSKLAAALEHHHHHH
Take B3: the “Neutralization IC50, authentic SARS-CoV-2 virus” value in test [1] was found to be 44.7 ngml^-1; in [2], 2.2 ngml^-1; in test [3], 3.4 ngml^-1; in test [4], 7.4 ngml^-1; in [5] it was 33.3 ngml^-1; in [6], 3.3 ngml^-1. Moreover, the “Neutralization IC50, pseudotyped lentivirus” value in test [7] is 0.9 ng/ml and 13 pM; in test [8], 66 pM and 4.8 ng/mL; in [9], 18 pM and 1.3 ng/ml. Also, the concentration giving a half-maximal response (EC50) in [10] is 0.34 nM; in [11], 0.15 nM; in test [12] it was at least 300 nM; in [13], 300 nM; in [14] it was 5.73 nM; in test [15], 0.63 nM. Besides, the EC50 in [16] turned out to be 0.21 nM; in test [17] it was 0.75 nM; in test [18], 0.59 nM; in test [19], 0.46 nM; in test [20], 0.37 nM; in [21], 300 nM. For the same molecule, the 50% effective concentration (EC50) in test [22] worked out at 1.03 nM; in test [23], 0.19 nM; in [24], 0.21 nM; in [25] it was 0.1 nM; in test [26], 0.26 nM; in test [27], 0.74 nM. Also, the EC50 in test [28] worked out at 7.65 nM; in test [29], 0.13 nM. The equilibrium dissociation constant (Kd) in test [30] is under 0.001 nM; in test [31], 3.65 nM.

B4: SR16m (designed binder)
chain: MGSSDLGKKLLEAARAGQDDEVRILMANGADVNALDLFGVTPLHLAAERGHLEIVEVLLKNGADVNAGDAFGRTPLHLAALGGHLEIVEVLLKNGADVNACDLYGVTPLHLAAGLGHLEIVEVLLKNGADVNAQDKFGKTAFDISIDNGNEDLAEILQSSSKLAAALEHHHHHH
B4: the “Neutralization IC50, pseudotyped lentivirus” value in test [8] worked out at 77.8 nM; in [9], 420 nM.
